Data: article PMC4980077 (The FEBS journal, 2016)
Square brackets hold non-standard residues; d marks the D form. Ends that are not written are not given here. * marks the point of attachment. 5‑TAMRA = CN(C)c1ccc2c(-c3ccc(C(=O)*)cc3C(=O)[O-])c3ccc(N(C)C)cc3[o+]c2c1; pS = N[C@@H](COP(=O)(O)O)C(=O)O

Legend:
[1] = target: full-length PKA-RIβ regulatory subunit dimer (UniProt P31321 1-381); assay: fluorescence polarisation
[2] = target: full-length PKA-RIα regulatory subunit dimer (bovine, UniProt P00514 1-380); assay: fluorescence polarisation
Sequence of full-length PKA-RIα regulatory subunit dimer (P00514 whole entry): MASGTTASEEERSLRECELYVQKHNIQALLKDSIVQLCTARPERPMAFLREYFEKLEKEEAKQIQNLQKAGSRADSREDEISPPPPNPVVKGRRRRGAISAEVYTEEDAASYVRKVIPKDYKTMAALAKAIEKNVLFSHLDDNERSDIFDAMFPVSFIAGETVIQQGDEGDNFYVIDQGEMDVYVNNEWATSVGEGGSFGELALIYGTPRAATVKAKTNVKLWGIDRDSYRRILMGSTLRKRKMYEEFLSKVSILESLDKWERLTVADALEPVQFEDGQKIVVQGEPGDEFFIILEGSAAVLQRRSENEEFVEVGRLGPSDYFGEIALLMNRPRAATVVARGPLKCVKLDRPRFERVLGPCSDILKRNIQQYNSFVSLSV

Sequence of full-length PKA-RIβ regulatory subunit dimer (P31321 whole entry): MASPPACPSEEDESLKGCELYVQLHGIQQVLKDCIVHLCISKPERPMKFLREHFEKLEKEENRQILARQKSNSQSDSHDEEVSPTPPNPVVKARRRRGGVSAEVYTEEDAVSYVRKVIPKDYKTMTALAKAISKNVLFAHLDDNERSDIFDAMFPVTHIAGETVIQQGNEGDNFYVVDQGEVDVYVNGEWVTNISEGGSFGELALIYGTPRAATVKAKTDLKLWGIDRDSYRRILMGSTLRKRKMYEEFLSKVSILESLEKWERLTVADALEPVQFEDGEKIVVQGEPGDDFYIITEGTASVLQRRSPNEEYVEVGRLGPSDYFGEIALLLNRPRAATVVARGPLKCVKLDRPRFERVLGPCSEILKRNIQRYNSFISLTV

B1: phosphorylated smAKAP-AKB domain peptide (pSer66), tagged with 5-TAMRA (peptide)
peptide: {5‑TAMRA}-IVILEYAHRL[pS]QDILCDALQQWAC
modifications: cysteine pairing not given here
In the case of B1, the Kd [1] is reported as > 500 nM and the Kd [2] is reported as > 500 nM.
